Data: the supplement of paper PMC12783771
± gives the standard deviation of the averaged measurements.

B1: library; numbered along this chain (parent)
chain: MNIQIGELAKRTACPVVTIRFYEQEGLLPPPGRSRGNFRLYGEEHVERLQFIRHCRSLDMPLSDVRTLLSYRKRPDQDCGEVNMLLDEHIRQVESRIGALLELKHHLVELREACSGARPAQSCGILQGLSDCVCDTRGTTAHPSD

Assays:
[1] = variants of: B1; assay: sfGFP reporter fluorescence (15 h) (µM FITC); higher = higher leak; details: library round: Round 0; ligand: none
In short: (§1)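 An Echo normalized PCR-made linear PbrR templates to 5 nM and assembled 1 μL reactions in BL21 Star (DE3) PANOx-SP extract carrying the pPbrR-sfGFP reporter plasmid and 30 μg/mL GamS. Reactions received 1 µM lead chloride, 30 µM zinc acetate or no metal and stood 15 hr at 30 °C. Fluorescence at 485/528 nm (Synergy Neo2) was converted with FITC standard curves made in 50 mM sodium borate pH 8.5. Endpoint sfGFP signal is given in µM FITC, from up to three biological replicates.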

[2] = variants of: B1; assay: sfGFP reporter fluorescence (15 h) (µM FITC); higher = stronger transcriptional activation; details: library round: Round 0
In short: as §1

Variant	sfGFP reporter fluorescence [1]	sfGFP reporter fluorescence ([2]; ligand: 1 µM Pb)	sfGFP reporter fluorescence ([2]; ligand: 30 µM Zn)
G138A	0.0597 ± 0.001	0.0724 ± 0.0018	0.697 ± 0.17
D145A	0.0599 ± 0.0013	0.0702 ± 0.0039	0.56 ± 0.036
V133A	0.06341 ± 0.00052	0.0746 ± 0.007	0.769 ± 0.021
L129Y	0.057 ± 0.0018	0.05901 ± 0.00052	0.05626 ± 0.00026
L129W	0.0572 ± 0.0026	0.06047 ± 0.00052	0.05717 ± 0.00052
D135Y	0.0676 ± 0.0039	0.116 ± 0.0073	1.46 ± 0.17
D135M	0.0636 ± 0.0018	0.09639 ± 0.00052	2.2 ± 0.33
D135W	0.0737 ± 0.0036	0.146 ± 0.012	1.83 ± 0.17
D135G	0.0531	0.0764 ± 0.0023	0.802 ± 0.074
D135I	0.0614 ± 0.0018	0.0927 ± 0.0031	1.72 ± 0.18
D135P	0.0557 ± 0.0036	0.0826 ± 0.0049	0.672 ± 0.09
D135C	0.0603 ± 0.0013	0.0792 ± 0.0036	1.73 ± 0.12
D135R	0.06267 ± 0.00052	0.098 ± 0.0086	0.909 ± 0.043
D135H	0.0665 ± 0.0018	0.107 ± 0.0042	2.14 ± 0.068
D135T	0.0608	0.088 ± 0.001	1.13 ± 0.12
D135L	0.059	0.0898 ± 0.0026	1.55 ± 0.24
D135N	0.0588 ± 0.0034	0.0847 ± 0.0078	1.18 ± 0.32
D135Q	0.0574 ± 0.0023	0.0826 ± 0.0023	1.28 ± 0.13
D135F	0.0718 ± 0.001	0.138 ± 0.0065	1.49 ± 0.28
D135S	0.06011 ± 0.00052	0.08723 ± 0.00052	0.988 ± 0.095
D135E	0.0579 ± 0.0021	0.0724 ± 0.0029	0.648 ± 0.055
D135K	0.0618 ± 0.0018	0.085 ± 0.0015	0.962 ± 0.052

Variant	sfGFP reporter fluorescence [1]	sfGFP reporter fluorescence ([2]; ligand: 1 µM Pb)	sfGFP reporter fluorescence ([2]; ligand: 30 µM Zn)
D135A	0.0733 ± 0.0015	0.0834 ± 0.0029	0.335 ± 0.0078
D135V	0.059 ± 0.001	0.081 ± 0.0015	1.06 ± 0.13
T136A	0.0601 ± 0.001	0.0696 ± 0.0031	0.668 ± 0.013
T140A	0.0614 ± 0.0013	0.0726 ± 0.0015	0.5 ± 0.039
S130A	0.0599 ± 0.0013	0.0821 ± 0.001	0.862 ± 0.14
C132A	0.0695 ± 0.0023	0.0832 ± 0.0073	1.63 ± 0.043
T139A	0.0616 ± 0.0015	0.0737 ± 0.0036	0.7601 ± 0.0031
D131K	0.0706 ± 0.0029	0.127 ± 0.012	1.5 ± 0.34
D131I	0.0607 ± 0.0029	0.0797 ± 0.0049	0.832 ± 0.073
D131C	0.05919 ± 0.00026	0.0779 ± 0.0013	0.242 ± 0.062
D131T	0.06267 ± 0.00052	0.0914 ± 0.012	0.747 ± 0.23
D131Q	0.06432 ± 0.00026	0.124 ± 0.0029	1.26 ± 0.24
D131V	0.0641 ± 0.001	0.0905 ± 0.0078	0.984 ± 0.15
D131H	0.0621 ± 0.0013	0.0957 ± 0.0026	0.996 ± 0.034
D131A	0.0691 ± 0.00078	0.1098 ± 0.00078	1.141 ± 0.0013
D131M	0.0687 ± 0.0018	0.126 ± 0.0073	1.17 ± 0.17
D131E	0.059 ± 0.0021	0.0825 ± 0.0042	0.657 ± 0.043
D131G	0.0566 ± 0.00078	0.0991 ± 0.0034	0.604 ± 0.15
D131S	0.0618 ± 0.0034	0.1033 ± 0.00052	0.962 ± 0.087
D131L	0.0663 ± 0.0042	0.119 ± 0.0091	0.994 ± 0.19
D131W	0.05699 ± 0.00026	0.07275 ± 0.00026	0.356 ± 0.046
D131R	0.0733 ± 0.00052	0.17 ± 0.022	1.65 ± 0.29

Variant	sfGFP reporter fluorescence [1]	sfGFP reporter fluorescence ([2]; ligand: 1 µM Pb)	sfGFP reporter fluorescence ([2]; ligand: 30 µM Zn)
D131Y	0.05919 ± 0.00026	0.0815 ± 0.0029	0.806 ± 0.01
D131N	0.0654 ± 0.00078	0.103 ± 0.0093	1.13 ± 0.24
D131P	0.0546 ± 0.0015	0.0619 ± 0.0021	0.134 ± 0.015
D131F	0.0596 ± 0.0013	0.0821 ± 0.0057	0.723 ± 0.048
S144A	0.0586 ± 0.0036	0.0588 ± 0.0023	0.493 ± 0.16
P143E	0.0563 ± 0.00078	0.0696 ± 0.0026	0.635 ± 0.04
P143Y	0.05846 ± 0.00026	0.0834 ± 0.0039	0.73 ± 0.013
P143I	0.05534 ± 0.00052	0.0768 ± 0.0023	0.801 ± 0.12
P143D	0.05754 ± 0.00052	0.0733 ± 0.0021	0.782 ± 0.024
P143V	0.0559 ± 0.0013	0.0726 ± 0.0026	0.757 ± 0.14
P143L	0.0563 ± 0.0018	0.0782 ± 0.0029	0.837 ± 0.046
P143H	0.0585 ± 0.0018	0.0786 ± 0.0013	0.764 ± 0.072
P143S	0.0566 ± 0.0023	0.07568 ± 0.00026	0.842 ± 0.05
P143W	0.0588 ± 0.0029	0.0861 ± 0.0026	0.751 ± 0.11
P143F	0.0568 ± 0.0015	0.0819 ± 0.0039	0.777 ± 0.052
P143K	0.0581 ± 0.00078	0.07293 ± 0.00052	0.889 ± 0.15
P143C	0.0574 ± 0.0013	0.07678 ± 0.00026	0.495 ± 0.12
P143N	0.0568 ± 0.0015	0.0718 ± 0.0057	0.865 ± 0.12
P143Q	0.0566 ± 0.0039	0.0735 ± 0.0049	0.871 ± 0.098
P143R	0.05864 ± 0.00052	0.0806 ± 0.0052	0.983 ± 0.14
P143G	0.05351 ± 0.00052	0.06945 ± 0.00026	0.71 ± 0.092
P143M	0.05736 ± 0.00026	0.0799 ± 0.001	0.812 ± 0.12

Variant	sfGFP reporter fluorescence [1]	sfGFP reporter fluorescence ([2]; ligand: 1 µM Pb)	sfGFP reporter fluorescence ([2]; ligand: 30 µM Zn)
P143T	0.05772 ± 0.00026	0.0713 ± 0.0065	0.821 ± 0.11
P143A	0.0696 ± 0.0015	0.0806 ± 0.0026	0.4 ± 0.12
H142A	0.0614 ± 0.0034	0.0718 ± 0.001	0.728 ± 0.32
R137A	0.0579 ± 0.0021	0.06524 ± 0.00052	0.454 ± 0.062
C134L	0.0673 ± 0.00078	0.113 ± 0.012	1.3 ± 0.054
C134M	0.0693 ± 0.001	0.09162 ± 0.00052	1.28 ± 0.065
C134D	0.06157 ± 0.00052	0.0684 ± 0.0018	1.004 ± 0.008
C134E	0.0608 ± 0.001	0.0651 ± 0.0034	0.929 ± 0.095
C134P	0.0667 ± 0.00052	0.0847 ± 0.011	1.54 ± 0.058
C134W	0.145 ± 0.0042	0.4695 ± 0.0031	1.92 ± 0.047
C134A	0.0652 ± 0.001	0.0821 ± 0.0052	0.59 ± 0.049
C134V	0.0667 ± 0.00052	0.0894 ± 0.0047	1.13 ± 0.25
C134F	0.081 ± 0.001	0.202 ± 0.01	1.32 ± 0.51
C134N	0.06505 ± 0.00026	0.081 ± 0.0031	1.39 ± 0.12
C134Q	0.0652	0.0953 ± 0.001	1.33 ± 0.4
C134H	0.0645	0.0913 ± 0.0042	1.05 ± 0.012
C134K	0.0742 ± 0.00078	0.0891 ± 0.0021	1.71 ± 0.084
C134Y	0.072 ± 0.0034	0.154 ± 0.012	1.49 ± 0.19
C134G	0.0651 ± 0.0029	0.0841 ± 0.0013	1.35 ± 0.059
C134I	0.0678 ± 0.001	0.113 ± 0.0044	1.19 ± 0.11
C134S	0.06597 ± 0.00052	0.0814 ± 0.0036	1.22 ± 0.1
C134T	0.06542 ± 0.00026	0.0823 ± 0.0049	1.21 ± 0.096
